This is an account of results in US11999805.

Data set [1] concerns the target SpyCas9 (S. pyogenes), Q99ZW2. The data set can be described thus: cell-based or functional assay.
The target of the next data set is T1, Peptide 60.
T1 chain: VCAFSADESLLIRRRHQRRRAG

The next data set has as its target T2, Peptide 91.
T2 chain: VYDFYRMLSHFFLKGPSR

For another data set, the target named is T3, Peptide 15.
T3 chain: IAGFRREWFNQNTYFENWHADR

Another data set has as its target T4, Peptide 99.
T4 chain: RRSHIAWLLAMSLTWYS

The target in another data set is T5, Peptide 90.
T5 chain: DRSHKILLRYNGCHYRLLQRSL

On to KERRRSLMQLSVKSNSLFLGGT (modifications not checked) [Peptide 82], for which the IC50(uM), FRET cleavage assay in data set [1] is more than 200 µM.

B1: SauCas9 (protein)
chain: MKRNYILGLDIGITSVGYGIIDYETRDVIDAGVRLFKEANVENNEGRRSKRGARRLKRRRRHRIQRVKKLLFDYNLLTDHSELSGINPYEARVKGLSQKLSEEEFSAALLHLAKRRGVHNVNEVEEDTGNELSTKEQISRNSKALEEKYVAELQLERLKKDGEVRGSINRFKTSDYVKEAKQLLKVQKAYHQLDQSFIDTYIDLLETRRTYYEGPGEGSPFGWKDIKEWYEMLMGHCTYFPEELRSVKYAYNADLYNALNDLNNLVITRDENEKLEYYEKFQIIENVFKQKKKPTLKQIAKEILVNEEDIKGYRVTSTGKPEFTNLKVYHDIKDITARKEIIENAELLDQIAKILTIYQSSEDIQEELTNLNSELTQEEIEQISNLKGYTGTHNLSLKAINLILDELWHTNDNQIAIFNRLKLVPKKVDLSQQKEIPTTLVDDFILSPVVKRSFIQSIKVINAIIKKYGLPNDIIIELAREKNSKDAQKMINEMQKRNRQTNERIEEIIRTTGKENAKYLIEKIKLHDMQEGKCLYSLEAIPLEDLLNNPFNYEVDHIIPRSVSFDNSFNNKVLVKQEENSKKGNRTPFQYLSSSDSKISYETFKKHILNLAKGKGRISKTKKEYLLEERDINRFSVQKDFINRNLVDTRYATRGLMNLLRSYFRVNNLDVKVKSINGGFTSFLRRKWKFKKERNKGYKHHAEDALIIANADFIFKEWKKLDKAKKVMENQMFEEKQAESMPEIETEQEYKEIFITPHQIKHIKDFKDYKYSHRVDKKPNRELINDTLYSTRKDDKGNTLIVNNLNGLYDKDNDKLKKLINKSPEKLLMYHHDPQTYQKLKLIMEQYGDEKNPLYKYYEETGNYLTKYSKKDNGPVIKKIKYYGNKLNAHLDITDDYPNSRNKVVKLSLKPYRFDVYLDNGVYKFVTVKNLDVIKKENYYEVNSKCYEEAKKLKKISNQAEFIASFYNNDLIKINGELYRVIGVNNDLLNRIEVNMIDITYREYLENMNDKRPPRIIKTIASKTQSIKKYSTDILGNLYEVKSKKHPQIIKKG
For B1, the “% activity, FRET cleavage assay” value in the data set with Peptide 60 was “Peptide 60, 90, and 91 significantly reduced activity of SauCas9 and SpyCas9 at 200 µM (P<0.005)”; in the data set with Peptide 91 it was “Peptide 60, 90, and 91 significantly reduced activity of SauCas9 and SpyCas9 at 200 µM (P<0.005)”; in the data set with Peptide 15, “Peptide15 significantly reduced activity of CjeCas9 and SpyCas9 and SauCas9 at 200 µM (P<0.01)”; with Peptide 99, “Peptide 99 significantly reduced activity of all three Cas9 variants at 100 and 200 µM (P<0.005)”; with Peptide 90 it was “Peptide 60, 90, and 91 significantly reduced activity of SauCas9 and SpyCas9 at 200 µM (P<0.005)”. Moreover, the “reduction in cleavage-based fluorescence at 200 µM peptide, FRET assay” value in the data set with Many MPs is “Many MPs also reduced SauCas9 and CjeCas9 mediated cleavage at 200 µM with a greater than 80% reduction in fluorescence”.

With DRSHKILLRYNGCHYRLLQRSL (modifications not checked) [Peptide 90], in data set [1], the IC50(uM), FRET cleavage assay stood at 114 µM and the reduced editing (compared to plasmid control), A549 GFP reporter cells amounted to 35%.

Take IAGFRREWFNQNTYFENWHADR (modifications not checked) [Peptide 15]: the reduced editing (compared to plasmid control), A549 GFP reporter cells in data set [1] is 21%.

LNVKIGNAHLTTIMSTMPLVLC (modifications not checked) [Peptide 63] showed an IC50(uM), FRET cleavage assay in data set [1] of 97.9 µM.

B2: CjeCas9 (protein)
chain: MARILAFDIGISSIGWAFSENDELKDCGVRIFTKVENPKTGESLALPRRLARSARKRLARRKARLNHLKHLIANEFKLNYEDYQSFDESLAKAYKGSLISPYELRFRALNELLSKQDFARVILHIAKRRGYDDIKNSDDKEKGAILKAIKQNEEKLANYQSVGEYLYKEYFQKFKENSKEFTNVRNKKESYERCIAQSFLKDELKLIFKKQREFGFSFSKKFEEEVLSVAFYKRALKDFSHLVGNCSFFTDEKRAPKNSPLAFMFVALTRIINLLNNLKNTEGILYTKDDLNALLNEVLKNGTLTYKQTKKLLGLSDDYEFKGEKGTYFIEFKKYKEFIKALGEHNLSQDDLNEIAKDITLIKDEIKLKKALAKYDLNQNQIDSLSKLEFKDHLNISFKALKLVTPLMLEGKKYDEACNELNLKVAINEDKKDFLPAFNETYYKDEVTNPVVLRAIKEYRKVLNALLKKYGKVHKINIELAREVGKNHSQRAKIEKEQNENYKAKKDAELECEKLGLKINSKNILKLRLFKEQKEFCAYSGEKIKISDLQDEKMLEIDHIYPYSRSFDDSYMNKVLVFTKQNQEKLNQTPFEAFGNDSAKWQKIEVLAKNLPTKKQKRILDKNYKDKEQKNFKDRNLNDTRYIARLVLNYTKDYLDFLPLSDDENTKLNDTQKGSKVHVEAKSGMLTSALRHTWGFSAKDRNNHLHHAIDAVIIAYANNSIVKAFSDFKKEQESNSAELYAKKISELDYKNKRKFFEPFSGFRQKVLDKIDEIFVSKPERKKPSGALHEETFRKEEEFYQSYGGKEGVLKALELGKIRKVNGKIVKNGDMFRVDIFKHKKTNKFYAVPIYTMDFALKVLPNKAVARSKKGEIKDWILMDENYEFCFSLYKDSLILIQTKDMQEPEFVYYNAFTSSTVSLIVSKHDNKFETLSKNQKILFKNANEKEVIAKSIGIQNLKVFEKYIVSALGEVTKAEFRQREDFKK
Consider B2, for which the “% activity, FRET cleavage assay” value is “Peptide15 significantly reduced activity of CjeCas9 and SpyCas9 and SauCas9 at 200 µM (P<0.01)” with Peptide 15; “Peptide 99 significantly reduced activity of all three Cas9 variants at 100 and 200 µM (P<0.005)” with Peptide 99. The “reduction in cleavage-based fluorescence at 200 µM peptide, FRET assay” value in the data set with Many MPs was “Many MPs also reduced SauCas9 and CjeCas9 mediated cleavage at 200 µM with a greater than 80% reduction in fluorescence”.

In data set [1], LYYRIMLSCPKYYPCELVGHTS (modifications not checked) [Peptide 50] gave an IC50(uM), FRET cleavage assay of 145 µM and a reduced editing (compared to plasmid control), A549 GFP reporter cells of 30%.

Take RRSHIAWLLAMSLTWYS (modifications not checked) [Peptide 99]: in data set [1], the IC50(uM), FRET cleavage assay stood at 48.5 µM.

As to VCAFSADESLLIRRRHQRRRAG (modifications not checked) [Peptide 60], in data set [1], the IC50(uM), FRET cleavage assay is 92.2 µM and the reduced editing (compared to plasmid control), A549 GFP reporter cells was 30%.
